Assay [1] addresses T1, dp100 (Drosophila melanogaster, UniProt P22817).
T1 construct: detergent-solubilized membranes from Drosophila-cultured cell lines are immunoprecipitated with anti-EGF receptor antiserum; endogenous in cells; host or cells: Drosophila Schneider L2 and Kc cells (solubilized membrane or cytoplasmic protein, immunoprecipitated)
T1 sequence (P22817 1-990): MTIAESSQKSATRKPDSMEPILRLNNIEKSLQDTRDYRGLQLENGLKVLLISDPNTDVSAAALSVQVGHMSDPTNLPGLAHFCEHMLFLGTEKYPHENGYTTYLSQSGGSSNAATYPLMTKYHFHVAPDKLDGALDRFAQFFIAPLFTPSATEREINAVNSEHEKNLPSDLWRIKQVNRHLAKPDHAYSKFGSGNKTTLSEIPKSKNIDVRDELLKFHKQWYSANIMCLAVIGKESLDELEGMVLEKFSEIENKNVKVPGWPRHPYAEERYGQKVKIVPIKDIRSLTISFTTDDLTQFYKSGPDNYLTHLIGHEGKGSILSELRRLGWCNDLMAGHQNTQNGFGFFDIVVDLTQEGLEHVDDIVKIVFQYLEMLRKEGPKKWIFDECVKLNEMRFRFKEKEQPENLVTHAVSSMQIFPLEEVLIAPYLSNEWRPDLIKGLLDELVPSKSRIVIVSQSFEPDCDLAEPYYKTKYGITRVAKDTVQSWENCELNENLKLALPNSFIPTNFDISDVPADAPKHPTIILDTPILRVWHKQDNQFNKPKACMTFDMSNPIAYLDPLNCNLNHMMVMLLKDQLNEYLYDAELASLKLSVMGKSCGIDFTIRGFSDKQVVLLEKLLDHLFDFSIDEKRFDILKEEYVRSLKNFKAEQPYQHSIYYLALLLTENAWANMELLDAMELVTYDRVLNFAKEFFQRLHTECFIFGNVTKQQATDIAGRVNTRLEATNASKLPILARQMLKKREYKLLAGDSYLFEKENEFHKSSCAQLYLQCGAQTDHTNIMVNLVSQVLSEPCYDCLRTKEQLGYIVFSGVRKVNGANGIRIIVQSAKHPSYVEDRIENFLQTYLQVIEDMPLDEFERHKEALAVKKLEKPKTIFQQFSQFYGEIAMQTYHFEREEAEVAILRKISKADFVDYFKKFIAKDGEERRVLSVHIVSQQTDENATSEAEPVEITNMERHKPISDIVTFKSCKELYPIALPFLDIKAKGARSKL
Briefly: Competitive affinity labelling of immunoprecipitated dp100 with 125I-insulin as label. In kind it is binding. As to conditions: for Kd: competition with 125I-insulin. How it is done: Affinity Labeling of Immunoprecipitates: The dp100 protein is found in the membranes and cytoplasm of the Drosophila cells. Membrane protein is solubilized in 1 to 2% Triton X-100, 10% glycerol, 50 mM Hepes, pH 7.0, for 60 min at 4° C. Typically, 500 microgram of Drosophila membrane protein or 100 microgram of Swiss 3T3 membrane protein are used per sample. Unsolubilized material is removed by centrifugation at 12,000 x g for 10 min. The solublized membrane protein or cytoplasmic protein is diluted 1:2 and precleared by incubation with protein A-Sepharose beads (Pharmacia Fine Chemical Co., Piscataway, NJ). […] The immunopellets are washed three times with 50 mM Hepes, pH 7.0, 50 mM NaCl, 10% glycerol, 0.1% Triton X-100 and resuspended in 25 mM Hepes, 50 mM NaCl, 0.1% Triton X-100, 1 mg of bovine serum albumin per ml. […] Binding specificity is tested by the simultaneous addition of a 1000-fold excess of unlabeled ligand (30 microM) and labeled ligand. Bound growth factor is crosslinked to the immunoprecipitates by addition of disuccinimidyl suberate to 0.4 mM and incubation for 15 min at 0° C. The samples are then centrifuged and the supernatant removed. The pellets are resuspended in sample buffer (33 mM Tris.HCl, pH 6.5, 2% NaDodS04, 10% glycerol, 0.1% bromophenol blue, 2% 2-mercaptoethanol) and boiled. The protein A-Sepharose beads are removed by centrifugation, and the supernatants run on 6.5% polyacrylamide/NaDodS04 gels.
To ensure linearity, several exposures are taken. Dissociation constants are determined by statistical analysis.
The dissociation constants ranged from 10^-6 M to 10^-9 M.

Assay [2] addresses T1, dp100. As to the kind of experiment: Affinity labelling of anti-EGF receptor immunoprecipitates (dp100) with 125I-labelled growth factors. The format is binding. The note with it: for affinity labelling (crosslinking) of dp100 by 125I-labelled ligand: disuccinimidyl suberate crosslinking, immunoprecipitates. How it is done:
(§1) Affinity Labeling of Immunoprecipitates: The dp100 protein is found in the membranes and cytoplasm of the Drosophila cells. Membrane protein is solubilized in 1 to 2% Triton X-100, 10% glycerol, 50 mM Hepes, pH 7.0, for 60 min at 4° C. Typically, 500 microgram of Drosophila membrane protein or 100 microgram of Swiss 3T3 membrane protein are used per sample. Unsolubilized material is removed by centrifugation at 12,000 x g for 10 min. The solublized membrane protein or cytoplasmic protein is diluted 1:2 and precleared by incubation with protein A-Sepharose beads (Pharmacia Fine Chemical Co., Piscataway, NJ). The cleared supernatants are treated overnight with anti-EGF receptor antiserum (1:10 dilution), anti-insulin receptor antiserum (1:50), or rabbit preimmune serum (1:10), and the product precipitated with protein A-Sepharose beads. The immunopellets are washed three times with 50 mM Hepes, pH 7.0, 50 mM NaCl, 10% glycerol, 0.1% Triton X-100 and resuspended in 25 mM Hepes, 50 mM NaCl, 0.1% Triton X-100, 1 mg of bovine serum albumin per ml. 125I-EGF (35 nM) or 125I-insulin (20 nM) is added, and the samples incubated 60 min at 15° C. Binding specificity is tested by the simultaneous addition of a 1000-fold excess of unlabeled ligand (30 microM) and labeled ligand. Bound growth factor is crosslinked to the immunoprecipitates by addition of disuccinimidyl suberate to 0.4 mM and incubation for 15 min at 0° C. The samples are then centrifuged and the supernatant removed. The pellets are resuspended in sample buffer (33 mM Tris.HCl, pH 6.5, 2% NaDodS04, 10% glycerol, 0.1% bromophenol blue, 2% 2-mercaptoethanol) and boiled. The protein A-Sepharose beads are removed by centrifugation, and the supernatants run on 6.5% polyacrylamide/NaDodS04 gels.
To increase sensitivity of detection, detergent-solubilized membranes from Drosophila-cultured cell lines are immunoprecipitated with anti-EGF receptor antiserum, anti-insulin receptor antiserum, or rabbit preimmune serum prior to affinity labeling. Radiolabeled growth factors are added to the immune precipitates in the presence or absence of excess growth factor, allowed to bind at 15° C., and then crosslinked with disuccinimidyl suberate. Samples are analyzed by separation on NaDodSO4 /PAGE and subsequent autoradiography. […] However, the anti-EGF receptor antiserum does specifically immunoprecipitate dp100. Similar results are observed when membrane proteins from two different Drosophila cell lines, Schneider L2 and Kc, are analyzed.
Controls with preimmune serum fail to immunoprecipitate dp100 or any other growth factor binding protein.

Assay [3] addresses T2, EGF receptor in human epithelial carcinoma A431 cells (Homo sapiens, UniProt P00533).
T2 construct: endogenous in cells; host or cells: A431 cells (American Type Culture Collection)
Briefly: Competition with 125I-EGF for binding to the EGF receptor in A431 cells. As to conditions: 4° C., 3 hr, FIG. 2. The protocol: FIG. 2 is a graph of the competitive binding of murine EGF and synthetic human TGF-alpha to the EGF receptor in A431 cells. ^125 I-EGF (10^5 cpm) was incubated with A431 cells (2×10^4 cells/well) at 4° C. for 3 hr in the presence of different M concentrations of unlabelled EGF ( ) or TGF-alpha ( ). The percent of binding as compared to the control is the mean of duplicate determinations with the error less than 10%.
Growth factor binding to A431 cells: A431 cells are grown in monolayer and ^125 I-labelled EGF bound to the cells as described by B. Friedman et al in Proc. Natl. Acad. Sci. U.S.A. 81, 3034-3039 (1984).
To ensure that the difference in the binding affinities of EGF and TGF-alpha for dp100 reflects a property of the protein rather than the particular growth factor preparations, the ability of unlabelled EGF and TGF-alpha to compete with ^125 I-labelled EGF for binding to the EGF receptor in human epithelial carcinoma A431 cells was determined.

The target in assay [4] is T1, dp100. Briefly: Affinity labelling of intact Drosophila membranes. In kind it is binding.
Another assay concerns the target T3, 170 kDa EGF receptor (Mus musculus, UniProt Q01279).
T3 construct: 170 kDa EGF receptor immunoprecipitated from murine 3T3 fibroblast membranes; endogenous in cells; host or cells: Swiss 3T3 mouse fibroblasts (solubilized membranes, immunoprecipitated)
Briefly: Affinity labelling of EGF receptor immunoprecipitated from murine 3T3 fibroblast membranes. In kind it is binding. How it is done: as §1, with “Binding specificity is tested by the simultaneous addition of a 1000-fold excess of unlabeled ligand (30 microM) and labeled ligand. Bound growth factor is crosslinked to the immunoprecipitates by addition of disuccinimidyl suberate to 0.4 mM and incubation for 15 min at 0° C. The samples are then centrifuged and the supernatant removed. The pellets are resuspended in sample buffer (33 mM Tris.HCl, pH 6.5, 2% NaDodS04, 10% glycerol, 0.1% bromophenol blue, 2% 2-mercaptoethanol) and boiled. The protein A-Sepharose beads are removed by centrifugation, and the supernatants run on 6.5% polyacrylamide/NaDodS04 gels.” left out
The dp100 has a higher affinity for insulln than EGF. First, in crosslinking experiments with membranes, binding of ^125 I-insulin but not ^125 I-EGF is detected.

Setting [5] is: densitometric scanning of autoradiograms, read-out: Dissociation constants for ligand binding to dp100, KD.
[6] abbreviates: read-out: dissociation constant (Kd) for binding to dp100.

Like-named read-outs stand apart in the source and are kept apart here.

On to “native TGF-alpha: native transforming growth factor-alpha”, for which the “affinity for dp100 compared with recombinant TGF-alpha” value with dp100 [1] (FIG. 3) is “within the same order of magnitude as the recombinant form”.
Turning to “IGF-I: insulin-like growth factor-I (Amgen)”, in the assay with dp100 [1] (setting [5]), the Kd came out at 500 nM. Moreover, the “affinity labelling (crosslinking) of dp100 by 125I-labelled ligand” value (“affinity labelling (crosslinking)” below) in the assay with dp100 [2] is given as “can be affinity labelled”.
Turning to PDGF, the “affinity labelling (crosslinking)” value on dp100 [2] is on record as “neither ^125 I-TGF-beta nor ^125 I-PDGF, two structurally unrelated growth factors, can be crosslinked”.
“TGF-alpha: Synthetic human transforming growth factor-alpha, synthesized chemically (J. Tam, Rockefeller University)”: the “affinity for dp100 relative to that for EGF” value with dp100 [1] was “three orders of magnitude higher”. In the assay with dp100 [1] (FIG. 3), the “affinity for dp100 relative to human recombinant TGF-alpha” value is 100-1000 times. Moreover, the dissociation constant (Kd) with dp100 [1] (setting [5]) and with dp100 [1] (setting [6]) was 5 nM in each case. For the same substance, the “affinity labelling (crosslinking)” value with dp100 [2] is “can be affinity labelled”. The “affinity for the mammalian EGF receptor, EGF versus TGF-alpha preparations” value in assay [3] was “no significant difference”.
For NGF: Nerve growth factor, in the assay with dp100 [1] (setting [6]), the Kd was greater than 1000 nM.
In the case of “INSULIN: porcine insulin from Biomedical Technologies Inc.”, the “inhibition of 125I-insulin and 125I-EGF binding to dp100, comparison of unlabeled ligands” value with dp100 [2] (competition with unlabeled ligand) is “more effective than EGF”. For the same substance, in the assay with dp100 [2], the “affinity labelling (crosslinking)” value is “can be affinity labelled”; the “blocking of 125I-insulin and 125I-EGF binding to dp100 by excess unlabeled ligand” value is “can block binding”. Moreover, the “affinity labelling by 125I-ligand after incubation with intact Drosophila membranes” value in the assay with dp100 [4] is listed as “can be detected”.
Take “EGF: murine epidermal growth factor, receptor grade and HPLC purified”: the “affinity for dp100 compared with recombinant TGF-alpha” value with dp100 [1] (FIG. 3) is “within the same order of magnitude as the recombinant form”. Moreover, in the assay with dp100 [1] (setting [5]), the Kd turned out to be 1300 nM. Further, in the assay with dp100 [2], the “affinity labelling (crosslinking)” value was “can be affinity labelled”; the “blocking of 125I-insulin and 125I-EGF binding to dp100 by excess unlabeled ligand” value is reported as “can block binding”. For the same substance, the “affinity for the mammalian EGF receptor, EGF versus TGF-alpha preparations” value in assay [3] is recorded as “no significant difference”. The “blocking of 125I-EGF affinity labeling of the murine EGF receptor by excess ligand” value with 170 kDa EGF receptor (excess unlabeled ligand) is “can be blocked by excess EGF”. Also, the “crosslinking of 125I-ligand to the 170 kDa EGF receptor” value in the assay with 170 kDa EGF receptor (immunoprecipitated by anti-EGF receptor antiserum) is reported as “can be crosslinked”. Besides, the “affinity labelling by 125I-ligand after incubation with intact Drosophila membranes” value with dp100 [4] is recorded as “is not detected”.
Regarding glucagon: glucagon (Sigma Chemical Co.), the equilibrium dissociation constant (Kd) with dp100 [1] (setting [6]) is greater than 1000 nM.
With “TGF-beta: 125I-TGF-beta, structurally unrelated growth factor”, the “affinity labelling (crosslinking)” value with dp100 [2] is reported as “neither ^125 I-TGF-beta nor ^125 I-PDGF, two structurally unrelated growth factors, can be crosslinked”.
